Source: US20240409617A1

B1: Ab2-7 IgG (antibody, V domains shown)
VH: QVTLKESGPTRVKPTQTLTLTCTFSGFSLSTTGVGVGWIRQPPGKALEWLALIYWNDDKRYSPSLKSRLTITKDTSKNQVVLTMTNMDPVDTATYYCARISGSGYFYPFDIWGQGTTVTVSS
VL: NFMLTQPHSVSESPGKTVTISCTRSSGSIASNYVQWYQQRPGSSPTTVIYEDNQRPSGVPDRFSGSIDSSSNSASLTISGLKAEDEADYYCQSYDSSSLWVFGGGTKLTVL
B2: Ab_14 scFv-Fc (scFv, V domains shown)
VH: QVQLQQSGPGLVKPSQTLSLTCAISGDSVSSNSAAWNWIRQSPARGLEWLGRTYYRSRWYNDYAISMKSRITINPDTSKNQFSLQLESVTPEDTAVYYCAREIRGFDYWGQGTLVTVSS
VL: QSVLTQPPSASGSPGQSVTISCTGTSSDVGAYNFVSWYQHHPGKAPKLIIYDFNKRPSGVPDRFSGSKSGNTASLTVSGLQADDEADYYCSSYAGSNNFDVVFGGGTKLTVL
B3: Ab_17 scFv-Fc (scFv, V domains shown)
VH: QVQLVQSGGGVVQPGRSLRLSCAASGFTFDDYAMHWVRQVPGKGLEWVSGIDWNSGVIGYADSVKGRFTISRDNVKNSLYLQMNSLRTEDSALYYCAKDIGPGGSGSYYAFDIWGQGTTVTVSS
VL: QSALTQPASVSGSPGQSITISCTGTSSDVGGSKYVSWYQQHPGKAPKVMIYDVTKRPSGVPDRFSGSKSGNTASLTISGLQAEDEADYYCAAWDDSLNGVVFGGGTKLTVL
B4: Ab_21 scFv-Fc (scFv, V domains shown)
VH: QVQLVQSGGGLVQPGGSLRLSCATSGFTFDDYAMHWVRQAPGKGLEWVSGISWNSGSIGYVDSVKGRFTISRDNRNNKVYLQMNNLRAEDTAVYYCARDWWGSIDHWGLGTLVTVSS
VL: QSALTQPRSVSGSPGQSVTISCTGTSSDVGGYDYVSWYQQHPGKAPKLIIYDVSKRPSGVPDRFSGSKSGNTASLTVSGLQAEDEADYYCSSYTSSSPVVFGGGTKLTVL
B5: Ab_26 scFv-Fc (scFv, V domains shown)
VH: QVQLVQSGGGLVQPGRSLRLSCAASGFTFDDYAMHWVRQVPGKGLEWVSGIDWNSGVIGYADSVKGRFTISRDNAKNSLYLQMNSLRAEDTALYYCAKDAYSYGFLGAFDIWGQGTMVTVSS
VL: LPVLTQPPSVSVAPGQTASITCGGDNIRTKGVHWYQQKPGQAPLLVIYYASDRPSGIPERFSGSSSGNTATLTISRVEAGDEADYYCQVWDSSSDLVVFGGGTTLTVL
B6: Ab_16 scFv-Fc (scFv, V domains shown)
VH: QVQLVQSGGGVVQPGRSLRLSCAASGFTFSNYGMHWVRQAPGKGLEWVALIWERGSKKDYADSVKGRFTVSRDNSKNTLYLQMNSLRPEDTAVYFCAREGISMTGAEYFQHWGQGTLVTVSS
VL: QSVLTQPPSVSGSPGQRVTMSCTGSSSNIGAGYDVHWYQQVPGAAPRLLIYGTNNRPSGVPDRFSGSKSGTSASLTITGLQAEDEADYYCQSYDNSLTDPYVFGTGTKVTVL
B7: Ab_19 scFv-Fc (scFv, V domains shown)
VH: EVQLVESGAEVKKPGESLKISCKGSGYSFTSYWIGWVRQMPGKGLEWMGIIYPGDSDTRYSPSFQGQVTISADKSISTAYLQWSSLKASDTAMYYCARRGDLDAFDIWGQGTMVTVSS
VL: QPGLTQPPAASGTPGQRVTVSCSGASANIGSNAVSWFKQFPETAPRLLISGNTHRPSGVPDRVSGSKSGTSASLTISGLQSDDEADYYCAAWDDSLNGYVFGSGTKVTVL
B8: RBD-R3-E1-B3 Ab (Ab_32) scFv-Fc (scFv, V domains shown)
VH: QVQLVQSGAEVKKPGESLKISCKGSGYSFTSYWIGWVRQMPGKGLEWMGIIYPGDSDTRYSPSFQGQVTISADKSISTAYLQWSSLKASDTAMYYCARGWQWHDYWGQGTLVTVSS
VL: QTVVTQEPAVSVALGQTVRITCQGDSLRSYYASWYQQKPGQAPVLVVYDKDKRPSGIPDRFSGSTSGNTASLTITGAQAEDEADYYCNSRDRSDNHVVFGGGTKLTVL
B9: RBD-R3-E1-A5 Ab (Ab_30) scFv-Fc (scFv, V domains shown)
VH: QVQLVQSGGGVVQPGKSLRLSCTASGFTFSDFPIHWVRQAPGKGLEWVGVISYDGNIKYYGDSVKGRFTISRDNAKNSLYLQMNSLRVEDTAVYYCARGGSSFDIWGQGTTVTVSS
VL: SYELTQPPSVSEAPRQRVTISCSGSTSNIGNNAVSWYQHLPGKAPKLLIYYNERLPSGVSDRFSGSKSGTSASLAISGLRSEDEADYYCAAWDDSLSGHVVFGGGTKLTVL
B10: S1-RBD-R3-T1-C7 Ab (Ab_29) scFv-Fc (scFv, V domains shown)
VH: QVQLQQSGPGLVKPSQTLSLTCAISGDSVSSYSDAWNWIRQSPSRGLEWLGRTYYRSKWYNDYAVSVKSRITINPDTSKNQFSLQLSSVTPEDTAVYYCAREIVATTPFRNYYYGMDVWGQGTTVTVSS
VL: NFMLTQPHSVSESPGNTVTISCTRTSGSIASNYVQWYQQRPGSSPTTVIFQDKLRPSGVPDRFSGSIDSSSNSASLTISGLKTEDEADYYCQSYDSSSLWVFGGGTKLTVL
B11: Ab_28 scFv-Fc (scFv, V domains shown)
VH: QVTLKESGPGLVNPSETLSLTCTVSGASISNSFWSWIRQSPGKGLEWIGYTSYSGNSIYNPSLKSRLTMSIDTSKNQLSLNLRSLTAADTAVYYCARREWIKGHFDYWGQGTLVTVSS
VL: NFMLTQPHSVSESPGKTVTISCTGSGGSIASNYVQWYQQRPGSAPTTVIYEDNQRPSGVPDRFSGSIDSSSNSASLTISGLKTEDEADYYCQSYDSSNPVVFGGGTKLTVL
B12: Ab_13 scFv-Fc (scFv, V domains shown)
VH: QVTLKESGPKLVKPTQTLTLTCTFSGFSLSTSGVGVGWIRQPPGKALEWLALIYWDDDKRYSPSLKSRLTIAKDTSKYQVVLTMTNMDPVDTATYYCARISGSGYFYPFDIWGQGTMVTVSA
VL: NFMLTQPHSVSESPGKTVTISCTRSSGSIASNYVQWYQQRPGSAPTTVIYEDNQRPSGVPDRFSGSIDSSSNSASLTISGLKTEDEADYYCQSYDSSNLWVFGGGTKLTVL
B13: Ab_20 scFv-Fc (scFv, V domains shown)
VH: QVQLVQSGGGSVKPGGSLRLSCAASGYRLSDYYMHWVRQAPGKGLEWVANIKQDGSEKYYVDSVKGRFTISRDNAKNSLYLQMNSLRAEDTAVYYCARVRGWSRGYFDYWGQGTLVTVSS
VL: NFMLTQPHSVSESPGKTVTISCTGSSGSIASNYVQWYQQRPGSAPTTVIYEDNQRPSGVPDRFSGSIDSSSNSASLLISGLKTEDEADYYCQSYDSSNHWVFGGGTKLTVL
B14: S1-RBD-R3-T1-F5 (Ab2-7) scFv-Fc (scFv, V domains shown)
VH: QVTLKESGPTRVKPTQTLTLTCTFSGFSLSTTGVGVGWIRQPPGKALEWLALIYWNDDKRYSPSLKSRLTITKDTSKNQVVLTMTNMDPVDTATYYCARISGSGYFYPFDIWGQGTTVTVSS
VL: NFMLTQPHSVSESPGKTVTISCTRSSGSIASNYVQWYQQRPGSSPTTVIYEDNQRPSGVPDRFSGSIDSSSNSASLTISGLKAEDEADYYCQSYDSSSLWVFGGGTKLTVL
B15: Ab_25 scFv-Fc (scFv, V domains shown)
VH: QVQLVQSGGGLVQPGGSLRLSCAASGFTFSSYWMSWVRQAPGKGLEWVANIKQDGSEKYYVDSVKGRFTISRDNAKNSLYLQMNSLRAEDTAVYYCARGFYYYGAFDIWGQGTTVTVSS
VL: NFMLTQPHSVSESPGKTVTISCTGSSGSIASNYVQWYQQRPGSAPTTVIYEDNQRPSGVPDRFSGSIGSSSNSASLTISGLKTEDEADYYCQSYDSSNHWVFGGGTKLTVL
B16: Ab_23 scFv-Fc (scFv, V domains shown)
VH: EVQLVQSGAEVKKPGSSVKVSCRSSGGTFSTYGITWVRQAPGQGLEWMGRIIPSLGIPNYAQKFQGRVTITADTSVSTAWMELSSLESDDTAIYYCARENIDLATNDFWGQGTLVTVSS
VL: QSALTQPPSASGSPGQSVTISCTGTSRDIGAYGYVSWYQQVPGKAPKLIIYEVRNRPSGVSSRFSGSKSGNTASLTISGLQAEDEADYYCSSYTSSSTLDVVFGGGTKLTVL
B17: Ab_27 scFv-Fc (scFv, V domains shown)
VH: QVQLVQSGTEVKKPGASVKVSCKASGYSFTGSHLHWVRQAPGQGLEWMGWINPDSGVINYAQKFQGRVTLTRDTSISTAYMELSGLRSDDTAVYYCARDKAIGYVWALDYWGQGTLVTVSS
VL: QSALTQPPSVSGSPGQSVTISCTGTSSDVGTYNRVSWYQQPPGKAPKLMIYEVSNRPSGVSNRFSGSKSGNTASLTISGLQAEDEADYYCSSYTRTFTYVFGTGTKVTVL
B18: S1-R3-T1-C4 (Ab_8) scFv-Fc (scFv, V domains shown)
VH: QVQLVQSGAEVKKPGSSVKVSCKASGGTFSSYAISWLRQAPGQGLEWMGWINPNSGGTNYAQKFQGRVTMTRDTSISTAYMELSRLRSDDTAVYYCARGSGGYYLGWGQGTLVTVSS
VL: QPGLTQPPSVSKGLRQTATLTCTGNSNNVGNQGAAWLQQHQGHPPKLLSYMNNNRPPGISERFSASRSGNTASLTITGLQPEDEADYYCSAWDSSLSRWVFGGGTKLSVL
B19: S1-RBD-R3-T1-B12 Ab (Ab_31) scFv-Fc (scFv, V domains shown)
VH: QVQLVQSGAEVKKPGSSVKVSCKASGGTFSSYTISWVRQAPGQGLEWMGGIIPILGTPNYAQKFQDRVAITADKSTSTAYMELSSLRSEDTAVYYCAVGSGWYSGFDYWGQGTLVTVSS
VL: NFMLTQPHSVSESPGKTVTISCTGSSGSIASNYVQWYQQRPGSAPTTVIYEDSQRPSGVPDRFSGSIDSSSNSASLTISGLKTEDEADYYCQSFHNSNPVIFGGGTKLTVL
B20: Ab_18 scFv-Fc (scFv, V domains shown)
VH: EVQLVQSGGGVVQPGRSLRVSCAASGFSFSRYGMHWVRQAPGKGLEWVAFIRHDGSKKYYADSVEGRFTISRDNSRNTVSLEMNSLRGEDTAVYYCAKDGRLEAALDDWGQGTLVTVSS
VL: NFMLTQPHSMSGSAGKTVTVSCIRSSGSIANNFVQWYQQRPGSAPTTVIYEDNQRPSGVPDRFSGSIDSSSNSASLTISGLKTEDEADYYCQSYDSSNLVFGGGTRLTVL

molecular target: SARS-CoV-2 spike trimer, soluble (SARS-CoV-2)

B1 was tested, and the Kd was < 1 pM.

For B1, the koff was < 1e-07 s⁻¹.

B1 showed a kon of 4.31e+07 M⁻¹ s⁻¹.

molecular target: D614G Spike (SARS-CoV2)

B2 and B3 are within 1.5-fold of each other in Kd: 8.12 pM for the first, 6.8 pM for the second.

B4 and B5 are within 1.5-fold of each other in Kd: 8 pM for the first, 9.97 pM for the second.

B6 and B7 are within 1.5-fold of each other in Kd: 8.35 pM for the first, 10.9 pM for the second.

B8 and B9 are within 1.5-fold of each other in Kd: 7.26 pM for the first, 7.43 pM for the second.

First: B10
Second: B11
The Kd of the first is 9-fold lower: 1.04 pM for the first, 9.41 pM for the second. The first binds more tightly here.

B12 and B13 are within 1.5-fold of each other in Kd: 8.1 pM for the first, 8.64 pM for the second.

B14 and B15 are within 1.5-fold of each other in Kd: 9.93 pM for the first, 8.56 pM for the second.

B16 and B17 are within 1.5-fold of each other in Kd: 8.82 pM for the first, 7.53 pM for the second.

B18 and B19 are within 1.5-fold of each other in Kd: 7.3 pM for the first, 9.03 pM for the second.

B20 showed a Kd of 6.33 pM.

Compared with B2, B3 is lower in Response: 0.402 for the first, 0.357 for the second.

First: B4
Second: B5
The Response of the first is lower: 0.228 for the first, 0.304 for the second.

Going from B6 to B7, the Response falls from 0.434 to 0.237.

Compared with B8, B9 is lower in Response: 0.204 for the first, 0.179 for the second.

Compared with B10, B11 is lower in Response: 0.202 for the first, 0.199 for the second.

Going from B12 to B13, the Response rises from 0.107 to 0.19.

First: B14
Second: B15
The Response of the first is higher: 0.116 for the first, 0.0425 for the second.

First: B16
Second: B17
The Response of the first is lower: 0.162 for the first, 0.276 for the second.

Going from B18 to B19, the Response falls from 0.187 to 0.168.

For B20, the Response was 0.291.
